According to patent US20060057669A1, “Inactive transcription factor tif-ia and uses thereof” (priority 2002, published 2006):
Each block holds one molecule with its values, some of them ahead of it.

Tests used:
Format in all cases: biochemical
Pol I transcription [1] = assay: Complementation of Pol I transcription in nuclear extracts from rapamycin-treated FM3A cells
Procedure: (B) Complementation of transcriptional activity in nuclear extracts from rapamycin-treated cells. Transcription reactions contained nuclear extracts (30 μg) from untreated (NE) or rapamycin-treated (NERapa) FM3A cells. In lanes 3-7, fractions containing partially purified Pol I transcription factors were added to NERapa-containing reactions.
(C) TIF-IA activates transcription in nuclear extracts form rapamycin-treated cells. Reactions were complemented with either 1 μl (lanes 2 and 5) of cellular TIF-IA (PL-650 fraction) or 20 ng (lanes 3 and 6) of immunopurified recombinant TIF-IA that has been expressed in SF9 cells.
(A) mTOR rescues transcription in vitro. Pol I transcription was assayed in nuclear extracts from rapamycin-treated FM3A cells. Reactions were supplemented with 50 ng TIF-IA (lane 1) or 10 ng, 20 ng and 30 ng of HA-mTOR (lanes 3-5).
(B) S6K1 activates Pol I transcription in extracts from rapamycin-treated cells. NERapa was supplemented with 50 ng TIF-IA (lane 1) or 100, 150 and 200 ng of GST-S6K1 (lanes 3-5) or GST-S6K1dd (lanes 6-8).
(§1) Nuclear extracts were prepared from exponentially growing (8×10^5 cells/ml), density-arrested or PD98059-treated (CN Bioscience, Bad Soden, Germany) 40 μM, 0.5 hr) or rapamycin-treated FM3A cells (ATCC, Manassas, USA). 25 μl assays contained 50 ng of template DNA (pMr600/EcoRI), 30 μg nuclear extract proteins and 12 mM Hepes-KOH, [pH8.0], 0.1 mM EDTA, 5 mM MgCl2, 80 mM KCl, 10 mM creatine phosphate, 12% (v/v) glycerol, 0.66 mM each of ATP, GTP and CTP, 0.01 mM UTP and 0.5 μCi [α-^32P]UTP (5000 Ci/mmol). After incubation for 60 min at 30° C., RNA was extracted and analyzed on non-denaturing 5% polyacrylamide gels
mTOR and S6K1 were purified from HEK293T cells overexpressing HA-tagged mTOR or GST/myc-tagged S6K1, respectively. 5×10^6 cells were lysed in 0.8 ml IP buffer, centrifuged at 10,000×g for 20 min, and the supernatants were incubated for 4 hr at 4° C. with either 15 μg anti-HA antibodies bound to 20 μl protein G-agarose (for HA-mTOR) or 20 μl packed GST-glutathione beads (for GST-myc-S6K1). […]

RSK2 = molecular target: T1, RSK2 (Mus musculus, UniProt P18654, A376E/A378E/F387I/G384D/H379Q/INS385D/L381M/N377E/Q380E/S369E/S386Y/T365E); assay: In vitro kinase assay with immunopurified RSK2
T1 construct: made in house; host or cells: HEK293T (kinase, immunopurified via HA); E. coli BL21(DE3) (GST substrate)
T1 sequence (P18654 with tags, fused parts or gaps with the stated changes): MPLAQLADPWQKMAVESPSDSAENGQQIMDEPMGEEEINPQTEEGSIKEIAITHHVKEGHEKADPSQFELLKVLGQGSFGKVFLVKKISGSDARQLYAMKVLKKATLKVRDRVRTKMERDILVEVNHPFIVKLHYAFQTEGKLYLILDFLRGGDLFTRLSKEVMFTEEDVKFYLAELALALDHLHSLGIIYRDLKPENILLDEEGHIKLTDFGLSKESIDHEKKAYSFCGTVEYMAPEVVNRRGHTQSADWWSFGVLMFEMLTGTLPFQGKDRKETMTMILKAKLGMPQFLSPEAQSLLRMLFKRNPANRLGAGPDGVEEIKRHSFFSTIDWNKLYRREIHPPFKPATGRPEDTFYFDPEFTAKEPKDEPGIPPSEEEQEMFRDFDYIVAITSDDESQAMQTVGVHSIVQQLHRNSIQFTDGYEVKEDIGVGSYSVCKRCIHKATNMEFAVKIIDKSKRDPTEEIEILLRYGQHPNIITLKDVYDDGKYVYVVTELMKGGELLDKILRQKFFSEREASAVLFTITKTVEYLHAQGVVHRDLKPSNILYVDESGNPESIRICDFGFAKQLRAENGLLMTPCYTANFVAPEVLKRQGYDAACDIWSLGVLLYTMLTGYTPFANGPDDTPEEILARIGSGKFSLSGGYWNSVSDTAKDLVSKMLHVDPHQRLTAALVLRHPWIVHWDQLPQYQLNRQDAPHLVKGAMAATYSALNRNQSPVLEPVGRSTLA
Procedure: (A) Tryptic peptide maps of recombinant TIF-IA phosphorylated by RSK2 in vitro. GST/TIF-IA409-651 was phosphorylated with HA-RSK-CA in vitro and the phosphopeptide pattern was compared with that of wild-type TIF-IA and TIF-IA1-632 labeled in vivo.
HA-tagged ERK1/2 or RSK2-CA was overexpressed in HEK293T cells, immunopurified and immobilized to protein G agarose. After stringent washing, the beads were suspended in 20 μl of 1.5× kinase assay buffer (75 mM Tris-HCl [pH 8.0], 15 mM MgCl2, 1.5 mM DTT, 5% glycerol) and assayed for activity. 30 μl reactions contained 100 μM ATP, 0.2 μCi of […] (5000 Ci/mmol), 0.5-1 μg S6 peptide (RRSSLRA) or GST/TIF-IA (Yuan et al. EMBO Reports 3 (2002) 1082-1087) and 10 fmoles RSK. After incubation for 30 min at 30° C., 5 μl of the supernatants were spotted onto phosphocellulose paper (Whatman p81), washed with 150 mM orthophosphoric acid and quantified with a PhosphorImager (Molecular Dynamics, Inc.). Alternatively, labeled GST/TIF-IA was subjected to SDS-PAGE, blotted onto nitrocellulose, digested with trypsin and analyzed by two-dimensional phosphopeptide mapping.
Phosphoamino acid analysis has established that TIF-IA is exclusively phosphorylated on serine residues (data not shown). The C-terminal tryptic peptide of TIF-IA contains three S—P sites (FIG. 4B, upper panel), a known target motif for MAPKs. […]

Pol I transcription [2] = assay: Complementation of Pol I transcription in nuclear extracts from PD98059-treated FM3A cells; details: standard transcription system containing ATP and GTP
Procedure: (C) TIF-IA, but not UBF, rescues Pol I transcription in extracts from PD98059-treated cells. Nuclear extracts from untreated or PD98059-treated FM3A cells were supplemented with 20 and 40 ng of purified TIF-IA and/or UBF (10 ng in lanes 7 and 9, 50 ng in lanes 3, 8 and 10).
(D) TIF-IA activates transcription in extracts from PD98059-treated cells in the presence of AMP-PNP and GMP-PNP. Nuclear extracts from PD98059-treated FM3A cells were supplemented with 40 ng of purified TIF-IA and assayed in the standard transcription system containing ATP and GTP (ATP, lanes 1, 2) or AMP-PNP and GMP-PNP (AMP-PNP, lanes 3, 4)
(D) ERK/RSK-dependent phosphorylation activates Pol I transcription in vitro. Nuclear extracts from PD98059-treated FM3A cells were supplemented with 40 ng of TIF-IA, 10 ng of HA-RSK, or 10 ng of HA-ERK as indicated, and transcriptional activity was assayed in the standard transcription system containing ATP and GTP (lanes 4-8) or AMP-PNP and GMP-PNP (lanes 9-13).
as §1
To test whether both TIF-IA and UBF, or TIF-IA alone, were targeted by ERK-mediated phosphorylation, nuclear extracts from untreated and PD98059-treated cells were assayed for rDNA transcription in the absence and presence of exogenous TIF-IA or UBF (FIG. 2C). If both UBF and TIF-IA were inactivated by PD98059, rescue of Pol I transcriptional activity would require both factors, whereas TIF-IA alone would be sufficient if it was the only factor that is inactivated by inhibition of the ERK pathway. […]

Molecule: S6K1: GST/myc-tagged S6 kinase purified from HEK293T cells
rescue of Pol I transcription in extracts from rapamycin-treated cells (Pol I transcription [1]): activated Pol I transcription to an extent that compared to that of exogenous TIF-IA

phosphorylation by RSK2 in vitro (RSK2): not phosphorylated
B1: GST/TIF-IA409-632: GST fusion of a TIF-IA C-terminal fragment lacking amino acids 633-651 (protein, UniProt Q9NYV6 409-632, looked up, fragment)
chain: SFLARAKFIPLITVKSCLDLLVNWLHIYLNNQDSGTKAFCDVALHGPFYSACQAVFYTFVFRHKQLLSGNLKEGLQYLQSLNFERIVMSQLNPLKICLPSVVNFFAAITNKYQLVFCYTIIERNNRQMLPVIRSTAGGDSVQICTNPLDTFFPFDPCVLKRSKKFIDPIYQVWEDMSAEELQEFKKPMKKDIVEDEDDDFLKGEVPQNDTVIGITPSSFDTHFR
modifications: GST fusion

B2: UBF: basal Pol I transcription initiation factor, FLAG-tagged UBF1 purified from Sf9 cells (protein, UniProt P17480 1-764, looked up)
Nucleolar transcription …: MNGEADCPTDLEMAAPKGQDRWSQEDMLTLLECMKNNLPSNDSSKFKTTESHMDWEKVAFKDFSGDMCKLKWVEISNEVRKFRTLTELILDAQEHVKNPYKGKKLKKHPDFPKKPLTPYFRFFMEKRAKYAKLHPEMSNLDLTKILSKKYKELPEKKKMKYIQDFQREKQEFERNLARFREDHPDLIQNAKKSDIPEKPKTPQQLWYTHEKKVYLKVRPDATTKEVKDSLGKQWSQLSDKKRLKWIHKALEQRKEYEEIMRDYIQKHPELNISEEGITKSTLTKAERQLKDKFDGRPTKPPPNSYSLYCAELMANMKDVPSTERMVLCSQQWKLLSQKEKDAYHKKCDQKKKDYEVELLRFLESLPEEEQQRVLGEEKMLNINKKQATSPASKKPAQEGGKGGSEKPKRPVSAMFIFSEEKRRQLQEERPELSESELTRLLARMWNDLSEKKKAKYKAREAALKAQSERKPGGEREERGKLPESPKRAEEIWQQSVIGDYLARFKNDRVKALKAMEMTWNNMEKKEKLMWIKKAAEDQKRYERELSEMRAPPAATNSSKKMKFQGEPKKPPMNGYQKFSQELLSNGELNHLPLKERMVEIGSRWQRISQSQKEHYKKLAEEQQKQYKVHLDLWVKSLSPQDRAAYKEYISNKRKSMTKLRGPNPKSSRTTLQSKSESEEDDEEDEDDEDEDEEEEDDENGDSSEDGGDSSESSSEDESEDGDENEEDDEDEDDDEDDDEDEDNESEGSSSSSSSSGDSSDSDSN
modifications: UBF1 FLAG tag
notes: basal Pol I transcription initiation factor, FLAG-tagged UBF1 purified from Sf9 cells
rescue of Pol I transcription in extracts from PD98059-treated cells (Pol I transcription [2]): had no effect

phosphorylation by RSK2 in vitro (RSK2): efficiently phosphorylated
B3: GST/TIF-IA409-651: GST fusion of the C-terminal part of TIF-IA containing aa 410-651 (protein, UniProt Q9NYV6 410-651, looked up, fragment)
chain: FLARAKFIPLITVKSCLDLLVNWLHIYLNNQDSGTKAFCDVALHGPFYSACQAVFYTFVFRHKQLLSGNLKEGLQYLQSLNFERIVMSQLNPLKICLPSVVNFFAAITNKYQLVFCYTIIERNNRQMLPVIRSTAGGDSVQICTNPLDTFFPFDPCVLKRSKKFIDPIYQVWEDMSAEELQEFKKPMKKDIVEDEDDDFLKGEVPQNDTVIGITPSSFDTHFRSPSSSVGSPPVLYMQPSPL
modifications: GST fusion
